Here are results for two molecules from patent US6579848B1, “Depigmenting activity of agouti signal protein and peptides thereof” (The United States of America as represented by the …, priority 1995, dated 2003).

Assay type in all cases: cell-based, murine
Assay [1] concerns tyrosinase. The experiment in a line: Tyrosine hydroxylase enzyme assay on extracts of treated melan-a cells. The following applies: extracts of melan-a cells cultured 5 days; 10 nM. How it is done:
(§1) Assays for melanogenic catalytic activities as described below were carried out at pH 6.8, 37° C. for 60 minutes. (1) Tyrosine hydroxylase activity was measured using the [^3H]tyrosine assay (Hearing and Ekel, 1976; Hearing, 1987). This method specifically measures the tritiated water produced during the hydroxylation of tyrosine to DOPA. (2) DOPA oxidase activity was measured using incorporation of [3-^14C]DOPA into acid-insoluble melanin as detailed previously (Aroca et al., 1993). (3) DOPAchrome tautomerase activity was measured by HPLC as the disappearance of DOPAchrome substrate and the production of DHICA rather than DHI; data are converted to pmol products by comparison with known standards. The HPLC assay was detailed previously (Palumbo et al., 1987; Tsukamoto et al., 1992). (4) DHI oxidase and DHICA oxidase activities were measured by HPLC as the disappearance of these substrates from reaction mixtures compared to controls for spontaneous auto-oxidation; data are converted to pmol by comparison with known standard (Aroca et al., 1993). (5) Melanin production was measured using incorporation of [^14C]tyrosine into acid-insoluble melanin, also as detailed previously (Hearing and Ekel, 1976; Hearing, 1987); pmol melanin produced are calculated from the radioactive product. […]

For assay [2], the system named is MSH receptor. The experiment in a line: Northern blotting of MSH receptor RNA in melan-a cells. The following applies: for RNA level of MSH receptor: 10 nM, 5 days.
Procedure: Briefly, 2.0 μg of mRNA, isolated using a total RNA isolation kit and mRNA purification kit (Promega, Madison, Wis.), were electrophoresed and then blotted to Sure-Blot nylon membranes (Oncor, Gaithersburg, Md.), hybridized with ^32P-labeled probes, dehybridized and rehybridized with other probes again as necessary.
2×10^6 cells were seeded per 15 cm diameter dish. The medium was changed everyday, and fresh agouti protein and/or αMSH added everyday usually at 10 nM.
The effects of agouti protein on expression of TRP1, TRP2, and the MSH receptor were examined.
Total RNA was extracted from cells using an RNeasy total RNA isolation kit (QIAGEN, Catsworth, Calif.), following the manufacturer's instructions. 20 μg of total RNA was denatured, electrophoresed through 1.0% agarose gels, and transferred overnight at 23° C. to SureBlot nylon hybridization membranes (Oncor, Gaithersburg, Md.) in the standard manner. Filters were prehybridized for 3 hours at 45° C. with Hybrisol I solution (Oncor, 50% formamide, 10% dextran sulfate, 1% SDS and blocking reagent), and then hybridized with a ^32P-labeled probe. […] A commercially available cDNA probe specific for glyceraldehyde-3-phospho-dehydrogenase (GAPDH) was used to standardize RNA loading on the blots. The cDNA probes were labeled using random primer extension and heated to 100° C. for 10 minutes, then cooled on ice for 10 minutes prior to adding to the hybridization solution. Hybridization was performed with the radiolabeled probes in Hybrisol I (3×10^7 cpm/10 ml) overnight at 45° C. with gentle shaking. Following the incubation, the blots were washed for 10 minutes at 23° C. with 2×SSC/10% SDS, then for 10 minutes with 0.2×SSC/0.5% SDS, and finally for 10 minutes with 0.1×SSC/0.1% SDS. The blots were then exposed in phosphoroimager cassettes at 23° C. for 1 hour and the densities of the bands were scanned using ImageQuant software. The % control for each probe was corrected for initial loading using comparison with the GAPDH standard. […] This was repeated as necessary until no remaining probe could be detected.
Assay [3] relates to TRP2. The assay is described as follows: DOPAchrome tautomerase enzyme assay on extracts of treated melan-a cells. The following applies: extracts of melan-a cells cultured 5 days; 10 nM. Here is the method: as §1
Assay [4] deals with melan-a cells. The experiment in a line: Melanin production assay on extracts of treated melan-a cells. The following applies: extracts of melan-a cells cultured 5 days; 10 nM. Here is the method: as §1

Turning to “α-melanocyte stimulating hormone [MSH, reference compound]”, the tyrosine hydroxylase in assay [1] came out at 8.7 ± 2.8 pmol/μg protein/hr. The “RNA level of MSH receptor” value in assay [2] was “no significant increase”. In assay [3], this molecule came in with a DOPA chome tautomerase of 555.0 pmol/μg protein/hr. Moreover, in assay [4], the melanin production was 6.3 ± 0.5 pmol/μg protein/hr.

B1: agouti protein: Recombinant murine agouti signal protein purified from a baculovirus expression system (protein)
chain: MDVTRLLLATLVSFLCFFTVHSHLALEETLGDDRSLRSDSSMNSLDFSSVSIVALNKKSKKISRKEAEKRKRSSKKKASMKKVARPPPPSPCVATRDSCKPPAPACCDPCASCQCRFFGSACTCRVLNPNC
For B1, the tyrosine hydroxylase in assay [1] is −1.2 ± 0.2 pmol/μg protein/hr. Also, the “RNA level of MSH receptor” value in assay [2] was “no significant effect”. Further, the “level of RNA for the MSH receptor” value in assay [2] (24 hours, different concentrations) is on record as “no significant effect”. Besides, the DOPA chome tautomerase in assay [3] is listed as 0.0 pmol/μg protein/hr. For the same molecule, the melanin production in assay [4] is on record as 0.22 ± 0.0 pmol/μg protein/hr.
